Measured values taken from paper PMC8170832.

Molecular target: endogenous HSF1 (heat shock factor 1), mouse embryonic fibroblasts (mouse (endogenous in MEFs)) (UniProt P38532)
Assay: co-IP

Chain of UniProt P38532 (P38532 whole entry): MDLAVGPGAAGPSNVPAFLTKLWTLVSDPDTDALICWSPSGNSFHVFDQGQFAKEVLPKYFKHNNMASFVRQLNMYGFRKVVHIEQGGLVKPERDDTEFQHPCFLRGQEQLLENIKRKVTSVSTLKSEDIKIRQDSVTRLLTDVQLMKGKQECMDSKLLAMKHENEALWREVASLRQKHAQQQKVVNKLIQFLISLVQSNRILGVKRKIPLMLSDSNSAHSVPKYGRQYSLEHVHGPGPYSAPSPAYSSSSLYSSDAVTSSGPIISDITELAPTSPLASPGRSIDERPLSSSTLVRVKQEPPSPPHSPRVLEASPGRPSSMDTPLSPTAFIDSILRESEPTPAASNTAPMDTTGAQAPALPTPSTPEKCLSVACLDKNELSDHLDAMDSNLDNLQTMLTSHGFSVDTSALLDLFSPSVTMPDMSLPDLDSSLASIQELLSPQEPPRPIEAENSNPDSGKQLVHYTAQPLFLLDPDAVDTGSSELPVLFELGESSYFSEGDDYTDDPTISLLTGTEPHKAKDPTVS

Row | percent of total cellular AMPKα depleted by IP of HSF1 [%] | percent of phospho-AMPKα depleted by IP of HSF1 [%] | Substance
1 | 66 |  | endogenous AMPK (AMP-activated protein kinase), mouse embryonic fibroblasts (from UniProt Q5EG47 1-559; Q9R078 1-270; Q91WG5 1-566) (complex)
2 |  | 25 | endogenous phospho-AMPKα (Thr172), mouse embryonic fibroblasts (from UniProt Q5EG47 1-559; Q9R078 1-270; Q91WG5 1-566) (complex)
